Test results: publication PMC10236585

Molecular target: mu-FGF5-Flag (FGF5 p. L191S) (rabbit)
Experiment: co-IP; HEK293T cells co-transfected with FGFR1 and FGF5-Flag or mu-FGF5-Flag; lysed 48 h later (50 mM Tris pH 7.4, 150 mM NaCl, 0.2 mM EDTA, 2 mM EGTA, 0.5% Igepal CA-630, 10% glycerol); anti-Flag IP resin overnight at 4 °C; immunoblot with anti-FGFR1 and anti-Flag; densitometry of FGFR1 in the IP normalised to FGF5 or mu-FGF5

fold decline in binding ability to FGFR1 against FGF5: 0.49 fold
Substance: FGFR1 (fibroblast growth factor receptor 1)
